Test results as given in publication PMC9482650, “Quantitative fragmentomics allow affinity mapping of interactomes” (Nature Communications, 2022).
Positions count from the first letter of the chain named.

T1: TIAM2, Q8IVF5
T1 sequence (Q8IVF5 885-986, limits assumed, looked up): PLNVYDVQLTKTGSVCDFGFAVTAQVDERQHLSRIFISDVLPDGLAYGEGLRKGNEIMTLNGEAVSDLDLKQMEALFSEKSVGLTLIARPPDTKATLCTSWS

T2: SNTG2, Q9NY99
T2 sequence (Q9NY99 68-166, limits assumed, looked up): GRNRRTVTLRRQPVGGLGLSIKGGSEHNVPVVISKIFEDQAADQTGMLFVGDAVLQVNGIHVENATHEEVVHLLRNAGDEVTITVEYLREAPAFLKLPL

T3: RADIL, Q96JH8
T3 sequence (Q96JH8 971-1071, limits assumed, looked up): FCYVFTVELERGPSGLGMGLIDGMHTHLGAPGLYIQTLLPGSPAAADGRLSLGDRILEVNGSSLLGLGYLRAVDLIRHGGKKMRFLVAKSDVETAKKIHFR

T4: APBA2_1, Q99767
T4 sequence (Q99767 563-664, limits assumed, looked up): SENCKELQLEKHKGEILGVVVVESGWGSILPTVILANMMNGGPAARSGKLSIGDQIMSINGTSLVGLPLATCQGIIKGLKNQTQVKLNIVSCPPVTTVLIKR

T5: PDZRN3_1, Q9UPQ7
T5 sequence (Q9UPQ7 244-349, limits assumed, looked up): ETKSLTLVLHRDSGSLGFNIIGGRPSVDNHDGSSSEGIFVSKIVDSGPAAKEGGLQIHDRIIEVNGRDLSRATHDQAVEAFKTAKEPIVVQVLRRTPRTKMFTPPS

T6: LIN7A, O14910
T6 sequence (O14910 103-200, limits assumed, looked up): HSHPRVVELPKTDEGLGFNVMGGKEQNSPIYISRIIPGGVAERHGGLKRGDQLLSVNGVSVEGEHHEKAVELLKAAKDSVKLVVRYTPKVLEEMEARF

T7: SNTG1, Q9NSN8
T7 sequence (Q9NSN8 52-150, limits assumed, looked up): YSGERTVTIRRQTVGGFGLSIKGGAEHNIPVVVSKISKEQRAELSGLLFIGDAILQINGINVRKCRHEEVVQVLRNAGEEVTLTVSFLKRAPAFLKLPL

T8: TX1BP3, O14907
T8 sequence (O14907 10-122, limits assumed, looked up): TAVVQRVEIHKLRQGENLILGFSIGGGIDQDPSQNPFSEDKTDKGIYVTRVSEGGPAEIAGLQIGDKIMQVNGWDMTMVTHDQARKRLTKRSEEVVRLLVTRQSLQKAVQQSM

T9: DLG3_2, Q92796
T9 sequence (Q92796 221-321, limits assumed, looked up): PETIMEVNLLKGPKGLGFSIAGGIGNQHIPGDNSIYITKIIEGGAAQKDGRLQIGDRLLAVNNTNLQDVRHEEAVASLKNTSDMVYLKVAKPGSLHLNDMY

T10: LIN7B, Q9HAP6
T10 sequence (Q9HAP6 88-185, limits assumed, looked up): T6 sequence (O14910 103-200, limits assumed, looked up) with S2A, V20I, I35V, E42D, H65Q, K77Q, D78G, K89R

T11: SNTA1, Q13424
T11 sequence (Q13424 82-180, limits assumed, looked up): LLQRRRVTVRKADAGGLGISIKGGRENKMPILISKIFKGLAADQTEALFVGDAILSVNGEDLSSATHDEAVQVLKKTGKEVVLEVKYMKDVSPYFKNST

T12: DLG3_1, Q92796
T12 sequence (Q92796 125-227, limits assumed, looked up): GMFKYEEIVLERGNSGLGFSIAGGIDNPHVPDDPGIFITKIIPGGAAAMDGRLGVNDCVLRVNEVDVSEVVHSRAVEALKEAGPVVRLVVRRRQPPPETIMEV


Experiments:
Assay in all cases: holdup assay
Parameters in all cases: key: below the threshold = too weak to quantify, mostly under pKd 3.1 to 4
Details in all cases: plain residues with an end cap or a label only (N-terminal biotin on a linker: ado-ado)
Inadl_1, Q8NI35 = target: Inadl_1, Q8NI35
TIAM2, Q8IVF5 = target: T1, TIAM2, Q8IVF5
GRID2IP_2, A4D2P6 = target: GRID2IP_2, A4D2P6
SNTG2, Q9NY99 = target: T2, SNTG2, Q9NY99
RADIL, Q96JH8 = target: T3, RADIL, Q96JH8
GORASP2, Q9H8Y8 = target: GORASP2, Q9H8Y8
PICK1, Q9NRD5 = target: PICK1, Q9NRD5
APBA2_1, Q99767 = target: T4, APBA2_1, Q99767
DLG5_1, Q8TDM6 = target: DLG5_1, Q8TDM6
PDZRN3_1, Q9UPQ7 = target: T5, PDZRN3_1, Q9UPQ7
LIN7A, O14910 = target: T6, LIN7A, O14910
MAGI1_1, Q96QZ7 = target: MAGI1_1, Q96QZ7
SNTG1, Q9NSN8 = target: T7, SNTG1, Q9NSN8
TX1BP3, O14907 = target: T8, TX1BP3, O14907
DLG3_2, Q92796 = target: T9, DLG3_2, Q92796
CASK, O14936 = target: CASK, O14936
NHERF4_2, Q86UT5 = target: NHERF4_2, Q86UT5
LIN7B, Q9HAP6 = target: T10, LIN7B, Q9HAP6
SNTA1, Q13424 = target: T11, SNTA1, Q13424
FRMPD4, Q14CM0 = target: FRMPD4, Q14CM0
ARHGEF12, Q9NZN5-2 = target: ARHGEF12, Q9NZN5-2
MAST2, Q6P0Q8 = target: MAST2, Q6P0Q8
DLG3_1, Q92796 = target: T12, DLG3_1, Q92796
TJP1_2, Q07157 = target: TJP1_2, Q07157
TJP1_2, Q07157, sequence (Q07157 181-274): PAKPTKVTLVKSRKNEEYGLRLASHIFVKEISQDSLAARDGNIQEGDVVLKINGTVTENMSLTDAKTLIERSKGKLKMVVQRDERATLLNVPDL

NHERF4_2, Q86UT5, sequence (Q86UT5 220-308): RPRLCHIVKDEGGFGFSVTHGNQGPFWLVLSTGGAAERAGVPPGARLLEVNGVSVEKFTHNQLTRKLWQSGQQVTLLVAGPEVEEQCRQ
GRID2IP_2, A4D2P6, sequence (A4D2P6 272-370): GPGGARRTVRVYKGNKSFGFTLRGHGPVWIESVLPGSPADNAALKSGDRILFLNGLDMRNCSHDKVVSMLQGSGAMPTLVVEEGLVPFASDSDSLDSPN
DLG5_1, Q8TDM6, sequence (Q8TDM6 617-713): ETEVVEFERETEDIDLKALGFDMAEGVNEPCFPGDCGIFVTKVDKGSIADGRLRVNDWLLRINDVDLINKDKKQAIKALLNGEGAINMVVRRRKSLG
MAST2, Q6P0Q8, sequence (Q6P0Q8 1099-1202): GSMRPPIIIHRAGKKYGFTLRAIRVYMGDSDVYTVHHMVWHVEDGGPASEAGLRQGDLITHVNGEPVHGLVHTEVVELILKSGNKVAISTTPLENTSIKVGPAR
FRMPD4, Q14CM0, sequence (Q14CM0 67-160): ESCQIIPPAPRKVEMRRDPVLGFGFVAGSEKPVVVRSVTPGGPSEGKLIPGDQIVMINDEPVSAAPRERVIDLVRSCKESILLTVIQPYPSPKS
MAGI1_1, Q96QZ7, sequence (Q96QZ7 1-106): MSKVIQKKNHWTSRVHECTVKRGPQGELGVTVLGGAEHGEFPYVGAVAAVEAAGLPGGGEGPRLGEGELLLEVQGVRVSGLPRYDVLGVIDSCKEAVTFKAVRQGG
CASK, O14936, sequence (O14936 487-570): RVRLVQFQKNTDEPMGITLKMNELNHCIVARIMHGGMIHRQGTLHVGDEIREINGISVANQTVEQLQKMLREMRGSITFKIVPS
Inadl_1, Q8NI35, sequence (Q8NI35 113-229): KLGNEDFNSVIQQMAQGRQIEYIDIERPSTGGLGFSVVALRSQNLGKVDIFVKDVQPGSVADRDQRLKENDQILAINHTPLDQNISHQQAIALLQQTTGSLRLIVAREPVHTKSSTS
PICK1, Q9NRD5, sequence (Q9NRD5 17-115): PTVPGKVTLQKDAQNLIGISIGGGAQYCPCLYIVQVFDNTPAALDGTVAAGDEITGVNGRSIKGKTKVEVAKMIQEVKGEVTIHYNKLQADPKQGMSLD
ARHGEF12, Q9NZN5-2, sequence (Q9NZN5 other isoform, or with tags, fused parts or gaps): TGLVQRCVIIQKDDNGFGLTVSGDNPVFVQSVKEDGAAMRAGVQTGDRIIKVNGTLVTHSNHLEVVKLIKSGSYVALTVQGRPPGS

Binder | pKd (Inadl_1, Q8NI35) | pKd (TIAM2, Q8IVF5) | pKd (GRID2IP_2, A4D2P6) | pKd (SNTG2, Q9NY99) | pKd (RADIL, Q96JH8) | pKd (GORASP2, Q9H8Y8) | pKd (PICK1, Q9NRD5) | pKd (APBA2_1, Q99767) | pKd (DLG5_1, Q8TDM6) | pKd (PDZRN3_1, Q9UPQ7) | pKd (LIN7A, O14910) | pKd (MAGI1_1, Q96QZ7) | pKd (SNTG1, Q9NSN8) | pKd (TX1BP3, O14907) | pKd (DLG3_2, Q92796) | pKd (CASK, O14936) | pKd (NHERF4_2, Q86UT5) | pKd (LIN7B, Q9HAP6) | pKd (SNTA1, Q13424) | pKd (FRMPD4, Q14CM0) | further results
MQHQRTHTRV [ZSCAN30, Q86W11] | below the threshold | 3.89 | 3.77 | 3.86 | 4.14 | 4.38 | below the threshold | below the threshold | below the threshold | below the threshold | below the threshold | below the threshold | below the threshold | 3.57 | 4.88 | below the threshold | below the threshold | below the threshold | 4.23 | below the threshold | pKd (ARHGEF12, Q9NZN5-2): 3.96; pKd (MAST2, Q6P0Q8): 5.21; pKd (DLG3_1, Q92796): 4.03; pKd (TJP1_2, Q07157): below the threshold
RQKEVRESKC [SCN8A, Q9UQD0] | below the threshold | 4.02 | 3.69 | 4.58 | below the threshold | below the threshold | 4.18 | below the threshold | below the threshold | 4.02 | below the threshold | below the threshold | 3.77 | 3.96 | 4.1 | below the threshold | below the threshold | 3.78 | 4.65 | below the threshold | pKd (ARHGEF12, Q9NZN5-2): 3.64; pKd (MAST2, Q6P0Q8): 4.82; pKd (DLG3_1, Q92796): below the threshold; pKd (TJP1_2, Q07157): below the threshold
AQRARSPSDV [GPR12, P47775] | below the threshold | 4.05 | below the threshold | below the threshold | below the threshold | below the threshold | 3.99 | below the threshold | below the threshold | below the threshold | below the threshold | 3.67 | below the threshold | below the threshold | 4.32 | below the threshold | below the threshold | 3.75 | below the threshold | below the threshold | pKd (ARHGEF12, Q9NZN5-2): below the threshold; pKd (MAST2, Q6P0Q8): below the threshold; pKd (DLG3_1, Q92796): below the threshold; pKd (TJP1_2, Q07157): below the threshold
